According to patent US11319341B2, “Immune-stimulating soluble doxorubicin-conjugated complex” (Yafei (Shanghai) Biopharmaceutical Co., Ltd., priority 2016, dated 2022):
Residues, ends and D or L forms follow the SMILES beside them. *: point of attachment. Doxorubicin(3'-N) = COc1cccc2c1C(=O)c1c(O)c3c(c(O)c1C2=O)C[C@@](O)(C(=O)CO)C[C@@H]3O[C@H]1C[C@H](N*)[C@H](O)[C@H](C)O1; Hexanoyl(6-maleimido) = O=C1C=CC(=O)N1CCCCCC(=O)*; Butanoyl(4-maleimido) = O=C1C=CC(=O)N1CCCC(=O)*; Propanoyl(3-maleimido) = O=C1C=CC(=O)N1CCC(=O)*; PEG6 = NCCOCCOCCOCCOCCOCCOCCC(=O)O; PEG4 = NCCOCCOCCOCCOCCC(=O)O; PEG3 = NCCOCCOCCOCCC(=O)O; PEG2 = NCCOCCOCCC(=O)O

test: Water solubility of freeze-dried compounds in water (observation and HPLC)

Row | Compound | solubility [µg/mL]
1 | COc1cccc2c1C(=O)c1c(O)c3c(c(O)c1C2=O)C[C@@](O)(C(=O)CO)C[C@@H]3O[C@H]1C[C@H](NC(=O)[C@H](CC(C)C)NC(=O)[C@H](CC(N)=O)NC(=O)[C@H](C)NC(=O)[C@H](C)NC(=O)[C@H](CCC(=O)O)NC(=O)CCOCCOCCNC(=O)CCCN2C(=O)C=CC2=O)[C@H](O)[C@H](C)O1 [QHL-063] ({Butanoyl(4-maleimido)-PEG2}-EAANL-{Doxorubicin(3'-N)}) | > 15000
2 | COc1cccc2c1C(=O)c1c(O)c3c(c(O)c1C2=O)C[C@@](O)(C(=O)CO)C[C@@H]3O[C@H]1C[C@H](NC(=O)[C@H](CC(C)C)NC(=O)[C@H](CC(N)=O)NC(=O)[C@H](C)NC(=O)[C@H](C)NC(=O)[C@H](CC(=O)O)NC(=O)CCOCCOCCNC(=O)CCCN2C(=O)C=CC2=O)[C@H](O)[C@H](C)O1 [QHL-066] ({Butanoyl(4-maleimido)-PEG2}-DAANL-{Doxorubicin(3'-N)}) | > 15000
3 | COc1cccc2c1C(=O)c1c(O)c3c(c(O)c1C2=O)C[C@@](O)(C(=O)CO)C[C@@H]3O[C@H]1C[C@H](NC(=O)[C@H](CC(C)C)NC(=O)[C@H](CC(N)=O)NC(=O)[C@H](C)NC(=O)[C@H](C)NC(=O)[C@H](CCC(=O)O)NC(=O)CCOCCOCCOCCNC(=O)CCCN2C(=O)C=CC2=O)[C@H](O)[C@H](C)O1 [QHL-069] ({Butanoyl(4-maleimido)-PEG3}-EAANL-{Doxorubicin(3'-N)}) | > 25000
4 | COc1cccc2c1C(=O)c1c(O)c3c(c(O)c1C2=O)C[C@@](O)(C(=O)CO)C[C@@H]3O[C@H]1C[C@H](NC(=O)[C@H](CC(C)C)NC(=O)[C@H](CC(N)=O)NC(=O)[C@H](C)NC(=O)[C@H](C)NC(=O)[C@H](CC(=O)O)NC(=O)CCOCCOCCOCCNC(=O)CCCN2C(=O)C=CC2=O)[C@H](O)[C@H](C)O1 [QHL-072] ({Butanoyl(4-maleimido)-PEG3}-DAANL-{Doxorubicin(3'-N)}) | > 25000
5 | COc1cccc2c1C(=O)c1c(O)c3c(c(O)c1C2=O)C[C@@](O)(C(=O)CO)C[C@@H]3O[C@H]1C[C@H](NC(=O)[C@H](CC(C)C)NC(=O)[C@H](CC(N)=O)NC(=O)[C@H](C)NC(=O)[C@H](C)NC(=O)[C@H](CCC(=O)O)NC(=O)CCOCCOCCOCCOCCNC(=O)CCCN2C(=O)C=CC2=O)[C@H](O)[C@H](C)O1 [QHL-075] ({Butanoyl(4-maleimido)-PEG4}-EAANL-{Doxorubicin(3'-N)}) | > 25000
6 | COc1cccc2c1C(=O)c1c(O)c3c(c(O)c1C2=O)C[C@@](O)(C(=O)CO)C[C@@H]3O[C@H]1C[C@H](NC(=O)[C@H](CC(C)C)NC(=O)[C@H](CC(N)=O)NC(=O)[C@H](C)NC(=O)[C@H](C)NC(=O)[C@H](CC(=O)O)NC(=O)CCOCCOCCOCCOCCNC(=O)CCCN2C(=O)C=CC2=O)[C@H](O)[C@H](C)O1 [QHL-078] ({Butanoyl(4-maleimido)-PEG4}-DAANL-{Doxorubicin(3'-N)}) | > 25000
7 | COc1cccc2c1C(=O)c1c(O)c3c(c(O)c1C2=O)C[C@@](O)(C(=O)CO)C[C@@H]3O[C@H]1C[C@H](NC(=O)[C@H](CC(C)C)NC(=O)[C@H](CC(N)=O)NC(=O)[C@H](C)NC(=O)[C@H](C)NC(=O)[C@H](CCC(=O)O)NC(=O)CCOCCOCCOCCOCCOCCOCCNC(=O)CCCN2C(=O)C=CC2=O)[C@H](O)[C@H](C)O1 [QHL-081] ({Butanoyl(4-maleimido)-PEG6}-EAANL-{Doxorubicin(3'-N)}) | > 30000
8 | COc1cccc2c1C(=O)c1c(O)c3c(c(O)c1C2=O)C[C@@](O)(C(=O)CO)C[C@@H]3O[C@H]1C[C@H](NC(=O)[C@H](CC(C)C)NC(=O)[C@H](CC(N)=O)NC(=O)[C@H](C)NC(=O)[C@H](C)NC(=O)[C@H](CC(=O)O)NC(=O)CCOCCOCCOCCOCCOCCOCCNC(=O)CCCN2C(=O)C=CC2=O)[C@H](O)[C@H](C)O1 [QHL-084] ({Butanoyl(4-maleimido)-PEG6}-DAANL-{Doxorubicin(3'-N)}) | > 30000
9 | COc1cccc2c1C(=O)c1c(O)c3c(c(O)c1C2=O)C[C@@](O)(C(=O)CO)C[C@@H]3O[C@H]1C[C@H](NC(=O)[C@H](CC(C)C)NC(=O)[C@H](CC(N)=O)NC(=O)[C@H](C)NC(=O)[C@H](C)NC(=O)CCOCCOCCOCCNC(=O)CCN2C(=O)C=CC2=O)[C@H](O)[C@H](C)O1 [QHL-090] ({Propanoyl(3-maleimido)-PEG3}-AANL-{Doxorubicin(3'-N)}) | > 10000
10 | COc1cccc2c1C(=O)c1c(O)c3c(c(O)c1C2=O)C[C@@](O)(C(=O)CO)C[C@@H]3O[C@H]1C[C@H](NC(=O)[C@H](CC(C)C)NC(=O)[C@H](CC(N)=O)NC(=O)[C@H](C)NC(=O)[C@H](C)NC(=O)CCOCCOCCNC(=O)CCCN2C(=O)C=CC2=O)[C@H](O)[C@H](C)O1 [QHL-099] ({Butanoyl(4-maleimido)-PEG2}-AANL-{Doxorubicin(3'-N)}) | > 20000
11 | COc1cccc2c1C(=O)c1c(O)c3c(c(O)c1C2=O)C[C@@](O)(C(=O)CO)C[C@@H]3O[C@H]1C[C@H](NC(=O)[C@H](CC(C)C)NC(=O)[C@H](CC(N)=O)NC(=O)[C@H](C)NC(=O)[C@H](C)NC(=O)CCOCCOCCOCCNC(=O)CCCN2C(=O)C=CC2=O)[C@H](O)[C@H](C)O1 [QHL-102] ({Butanoyl(4-maleimido)-PEG3}-AANL-{Doxorubicin(3'-N)}) | > 10000
12 | COc1cccc2c1C(=O)c1c(O)c3c(c(O)c1C2=O)C[C@@](O)(C(=O)CO)C[C@@H]3O[C@H]1C[C@H](NC(=O)[C@H](CC(C)C)NC(=O)[C@H](CC(N)=O)NC(=O)[C@H](C)NC(=O)[C@H](C)NC(=O)CCOCCOCCOCCOCCNC(=O)CCCN2C(=O)C=CC2=O)[C@H](O)[C@H](C)O1 [QHL-105] ({Butanoyl(4-maleimido)-PEG4}-AANL-{Doxorubicin(3'-N)}) | > 10000
13 | COc1cccc2c1C(=O)c1c(O)c3c(c(O)c1C2=O)C[C@@](O)(C(=O)CO)C[C@@H]3O[C@H]1C[C@H](NC(=O)[C@H](CC(C)C)NC(=O)[C@H](CC(N)=O)NC(=O)[C@H](C)NC(=O)[C@H](C)NC(=O)CCOCCOCCOCCOCCOCCOCCNC(=O)CCCN2C(=O)C=CC2=O)[C@H](O)[C@H](C)O1 [QHL-108] ({Butanoyl(4-maleimido)-PEG6}-AANL-{Doxorubicin(3'-N)}) | > 20000
14 | COc1cccc2c1C(=O)c1c(O)c3c(c(O)c1C2=O)C[C@@](O)(C(=O)CO)C[C@@H]3O[C@H]1C[C@H](NC(=O)[C@H](CC(C)C)NC(=O)[C@H](CC(N)=O)NC(=O)[C@H](C)NC(=O)[C@H](C)NC(=O)[C@H](CCC(=O)O)NC(=O)CCN2C(=O)C=CC2=O)[C@H](O)[C@H](C)O1 [QHL-111] ({Propanoyl(3-maleimido)}-EAANL-{Doxorubicin(3'-N)}) | > 10000
15 | COc1cccc2c1C(=O)c1c(O)c3c(c(O)c1C2=O)C[C@@](O)(C(=O)CO)C[C@@H]3O[C@H]1C[C@H](NC(=O)[C@H](CC(C)C)NC(=O)[C@H](CC(N)=O)NC(=O)[C@H](C)NC(=O)[C@H](C)NC(=O)[C@H](CC(=O)O)NC(=O)CCN2C(=O)C=CC2=O)[C@H](O)[C@H](C)O1 [QHL-114] ({Propanoyl(3-maleimido)}-DAANL-{Doxorubicin(3'-N)}) | > 15000
16 | COc1cccc2c1C(=O)c1c(O)c3c(c(O)c1C2=O)C[C@@](O)(C(=O)CO)C[C@@H]3O[C@H]1C[C@H](NC(=O)[C@H](CC(C)C)NC(=O)[C@H](CC(N)=O)NC(=O)[C@H](C)NC(=O)[C@H](C)NC(=O)CNC(=O)CCCCCN2C(=O)C=CC2=O)[C@H](O)[C@H](C)O1 [QHL-121] ({Hexanoyl(6-maleimido)}-GAANL-{Doxorubicin(3'-N)}) | > 10000
17 | COc1cccc2c1C(=O)c1c(O)c3c(c(O)c1C2=O)C[C@@](O)(C(=O)CO)C[C@@H]3O[C@H]1C[C@H](NC(=O)[C@H](CC(C)C)NC(=O)[C@H](CC(N)=O)NC(=O)[C@H](C)NC(=O)[C@H](C)NC(=O)[C@H](C)NC(=O)CCCCCN2C(=O)C=CC2=O)[C@H](O)[C@H](C)O1 [QHL-122] ({Hexanoyl(6-maleimido)}-AAANL-{Doxorubicin(3'-N)}) | > 10000
18 | COc1cccc2c1C(=O)c1c(O)c3c(c(O)c1C2=O)C[C@@](O)(C(=O)CO)C[C@@H]3O[C@H]1C[C@H](NC(=O)[C@H](CC(C)C)NC(=O)[C@H](CC(N)=O)NC(=O)[C@H](C)NC(=O)[C@H](C)NC(=O)[C@H](CC(C)C)NC(=O)CCCCCN2C(=O)C=CC2=O)[C@H](O)[C@H](C)O1 [QHL-124] ({Hexanoyl(6-maleimido)}-LAANL-{Doxorubicin(3'-N)}) | > 5000
19 | CC[C@H](C)[C@H](NC(=O)CCCCCN1C(=O)C=CC1=O)C(=O)N[C@@H](C)C(=O)N[C@@H](C)C(=O)N[C@@H](CC(N)=O)C(=O)N[C@@H](CC(C)C)C(=O)N[C@H]1C[C@H](O[C@H]2C[C@](O)(C(=O)CO)Cc3c(O)c4c(c(O)c32)C(=O)c2c(OC)cccc2C4=O)O[C@@H](C)[C@H]1O [QHL-125] ({Hexanoyl(6-maleimido)}-IAANL-{Doxorubicin(3'-N)}) | > 2000
20 | COc1cccc2c1C(=O)c1c(O)c3c(c(O)c1C2=O)C[C@@](O)(C(=O)CO)C[C@@H]3O[C@H]1C[C@H](NC(=O)[C@H](CC(C)C)NC(=O)[C@H](CC(N)=O)NC(=O)[C@H](C)NC(=O)[C@H](C)NC(=O)[C@H](CCSC)NC(=O)CCCCCN2C(=O)C=CC2=O)[C@H](O)[C@H](C)O1 [QHL-126] ({Hexanoyl(6-maleimido)}-MAANL-{Doxorubicin(3'-N)}) | > 2000
21 | COc1cccc2c1C(=O)c1c(O)c3c(c(O)c1C2=O)C[C@@](O)(C(=O)CO)C[C@@H]3O[C@H]1C[C@H](NC(=O)[C@H](CC(C)C)NC(=O)[C@H](CC(N)=O)NC(=O)[C@H](C)NC(=O)[C@H](C)NC(=O)[C@H](CO)NC(=O)CCCCCN2C(=O)C=CC2=O)[C@H](O)[C@H](C)O1 [QHL-129] ({Hexanoyl(6-maleimido)}-SAANL-{Doxorubicin(3'-N)}) | > 5000
22 | COc1cccc2c1C(=O)c1c(O)c3c(c(O)c1C2=O)C[C@@](O)(C(=O)CO)C[C@@H]3O[C@H]1C[C@H](NC(=O)[C@H](CC(C)C)NC(=O)[C@H](CC(N)=O)NC(=O)[C@H](C)NC(=O)[C@H](C)NC(=O)[C@@H](NC(=O)CCCCCN2C(=O)C=CC2=O)[C@@H](C)O)[C@H](O)[C@H](C)O1 [QHL-130] ({Hexanoyl(6-maleimido)}-TAANL-{Doxorubicin(3'-N)}) | > 2000
23 | COc1cccc2c1C(=O)c1c(O)c3c(c(O)c1C2=O)C[C@@](O)(C(=O)CO)C[C@@H]3O[C@H]1C[C@H](NC(=O)[C@H](CC(C)C)NC(=O)[C@H](CC(N)=O)NC(=O)[C@H](C)NC(=O)[C@H](C)NC(=O)[C@H](CS)NC(=O)CCCCCN2C(=O)C=CC2=O)[C@H](O)[C@H](C)O1 [QHL-131] ({Hexanoyl(6-maleimido)}-CAANL-{Doxorubicin(3'-N)}) | > 10000
